The values below come from patent publication US20070065439A1 (Amgen, published 2007).

Assay [1] deals with T1, Recombinant human IL-1beta (rhIL-1b) (human, UniProt P01584 117-269).
T1 construct: R&D Systems Cat. No. 201-LB/CF; also called IL-1β; human IL-1β
Nature of the assay: Biacore low-res, mAb captured, 25C; IL-1β in solution (118 nM) over captured mAb; low-resolution Biacore, 25 C. For orientation: In SPR one partner is held on a chip, and binding of the other changes the refractive index at the surface.

In assay [2] the target is T1, Recombinant human IL-1beta (rhIL-1b). Description: cell-based or functional assay.
Assay [3] has the same target. Nature of the assay: cell-based or functional assay. The source holds these as a separate data set.
Assay [4] has as its target T2, IL-1β R11A mutant (human, UniProt P01584 117-269).
T2 construct: site-directed mutant
Nature of the assay: binding to site-directed IL-1β mutant; X = abrogation of binding.

For assay [5], the target named is T1, Recombinant human IL-1beta (rhIL-1b). Description: Biacore, Low Resolution screen.
For assay [6] the target is unchanged. Description: Biacore, Medium Resolution; IL-1β in solution; medium-resolution Biacore.
For assay [7] the target is unchanged. Nature of the assay: Biacore high-res, mAb amine-coupled, 23C.
The target in assay [8] is T3, IL-1β R4A mutant (human, UniProt P01584 117-269).
T3 construct: site-directed mutant
Description: binding to site-directed IL-1β mutant; X = abrogation of binding.

The target of assay [9] is T1, Recombinant human IL-1beta (rhIL-1b). Nature of the assay: cell-based or functional assay. The source holds these as a separate data set.

B1: 6.33.1 (antibody, human IgG4, V domains shown)
VH: QVQLVESGGGVVQPGRSLRLSCAASGFTFSVYGMHWVRQAPGKGLEWVAVIWYDGSNKYYADSVKGRFTISRDNSKNTLYLQMNSLRAEDTAVYYCAREKSSGWFFDYWGQGTLVTVSS
VL: QSALTQPASVSGSPGQSITISCTGTSSDVGSYNLVSWYQQHPGKAPKLMIYEVSKRPSGISNRFSGSKSGNTASLTISGLQAEDEADYYCCSYAGNSIWVFGGGTKLTVL
notes: lambda; also called mAb 6.33.1
Regarding B1, in assay [1], the Kd is 0.32 nM, the koff worked out at 0.00016 s⁻¹ and the kon was found to be 500000 M⁻¹ s⁻¹. Also, the “EC50, inhibition of IL-1β-induced IL-6 production in MRC-5 cells” value (shortened to “EC50, inhibition … in MRC-5 cells”) in assay [2] amounted to 1.06 nM. Moreover, in assay [3], the “% IL-6 production, supernatant 1:5 dilut.” value is 13%; the “% IL-6 production, supernatant 1:10 dilut.” value worked out at 22%; the “% IL-6 production, supernatant 1:20 dilut.” value turned out to be 22%. In addition, in assay [4], the binding result is recorded as “no binding”. In [5], the Kd worked out at 0.32 nM. Also, in [6], the Kd was determined as 0.14 nM, the koff came out at 0.00014 s⁻¹ and the kon was determined as 970000 M⁻¹ s⁻¹. In addition, in assay [7], the Kd came out at 0.236 nM, the koff amounted to 0.000259 s⁻¹ and the kon came to 1.1e+06 M⁻¹ s⁻¹.

B2: 4.20.1 (antibody, human IgG4, V domains shown)
VH: QVQLVESGGGVVQPGRSLRLSCAASGFTFSNYGMNWVRQAPGKGLEWVAVIWYDGNNKSEADSVKGRFTISRDNSKNTLYLQMNSLRAEDTAVYYCARDSRSGPFDYWGQGTLVTVSS
VL: EIVLTQSPDFQSVTPKEKVTITCRASQSIGSSLHWYQQKPDQSPKLLIKFASQSFSGVPSRISGSGSGTDFTLTINSLEAEDAATYYCHQSSSLPFTFGPGTKVDIK
notes: kappa; also called 4.20.2
On to B2, for which the dissociation constant Kd in assay [1] was determined as 5 nM. Also, the binding result in [4] and in assay [8] was “no binding” each time.

B3: 8.18.1 (antibody, human IgG4, V domains shown)
VH: QVQLQESGPGLVKPSETLSLTCTVSGGSVSSGGYYWSWIRQPPGKGLEWIGYFYYSGSPNYNPSLKRRIAISVDTSKNQFSLRLSSVTAADTAVYYCARDPMHYYGMDVWGQGTTVTVSS
VL: SSELTQPPSVSVFPGQTANITCSGDKLGDKFACWYQQKPGQSPVLVIYRDNKRPSGIPERFSGSNSGNTATLTISGTQAMDEADYYCQAWDSSTYVVFGGGTKLTVL
notes: lambda; also called mAb 8.18.1
Consider B3, for which, in assay [1], the Kd was 0.629 nM, the koff was 0.00022 s⁻¹ and the kon is 350000 M⁻¹ s⁻¹. In assay [2], the “EC50, inhibition … in MRC-5 cells” value came out at 0.536 nM. Also, the “EC50, inhibition of IL-1β-induced IL-8 production in human whole blood” value in assay [9] was 2.29 nM. Moreover, in assay [3], the “% IL-6 production, supernatant 1:5 dilut.” value was determined as 2%; the “% IL-6 production, supernatant 1:10 dilut.” value was determined as 3%; the “% IL-6 production, supernatant 1:20 dilut.” value came out at 9%. For the same molecule, the binding result in [4] was “no binding”. Moreover, in assay [8], the binding result is listed as “no binding”. Besides, the dissociation constant (Kd) in assay [5] was determined as 0.629 nM. Moreover, in assay [6], the Kd worked out at 0.45 nM, the koff was 0.00022 s⁻¹ and the kon was found to be 490000 M⁻¹ s⁻¹. In [7], the Kd is 0.388 nM, the koff came out at 0.000188 s⁻¹ and the kon was 485000 M⁻¹ s⁻¹.

B4: 5.36.1 (antibody, human IgG4, V domains shown)
VH: QVQLQQSGPGLVKPSQTLSLTCAISGDSVSSNSAAWNWIRQSPSRGLEWLGRTYYRSKWYNDYAVSVKSRITINPDTSKNQFSLQLNSVTPEDTAVYYCAREEQQLVRYYYYYGMDVWGQGTTVTVS
VL: DIVMTQTPLSLSVTPGQPASISCKSSQSLLHSDGRTYLYWYLQRPGQPPQLLIYEASYRFSGVPDRFSGSGSGTDFTLKISRVEAEDVGIYYCMQSIQLPRTFGQGTRLEIK
notes: kappa
B4: in [1], the Kd worked out at 0.712 nM, the koff was 0.00042 s⁻¹ and the kon is 590000 M⁻¹ s⁻¹. Besides, the “EC50, inhibition … in MRC-5 cells” value in assay [2] was found to be 3.15 nM. For the same molecule, in [3], the “% IL-6 production, supernatant 1:5 dilut.” value turned out to be 6%; the “% IL-6 production, supernatant 1:10 dilut.” value was determined as 8%; the “% IL-6 production, supernatant 1:20 dilut.” value amounted to 18%. Moreover, the binding result in [4] is recorded as “no binding”. For the same molecule, in assay [8], the binding result is “no binding”. Also, in [5], the Kd was 0.712 nM. In assay [6], the Kd came out at 0.58 nM, the koff amounted to 0.00058 s⁻¹ and the kon is 1e+06 M⁻¹ s⁻¹.

A word on the Kd: it is the free concentration of one partner at which half of the binding sites on the other are occupied at equilibrium, for simple one-to-one binding. The term koff denotes the first-order rate constant of dissociation. By kon is commonly meant a measure of how fast the partners come together.
